The source of these data is PMC7565527, “Cryo-EM Structure of Heterologous Protein Complex Loaded Thermotoga Maritima Encapsulin Capsid” (Biomolecules, 2020).

The data set deals with the molecule itself. Briefly: cryo-EM structure; Encap/IDM complex coexpressed in insect cells, purified by Ni-NTA and Superdex 200; icosahedral reconstruction of the encapsulin shell at 2.87 Å, C1 reconstruction at 4.29 Å.

B1: Thermotoga maritima encapsulin capsid protein, C-terminus His-tagged (natural protein)
chain: MEFLKRSFAPLTEKQWQEIDNRAREIFKTQLYGRKFVDVEGPYGWEYAAHPLGEVEVLSDENEVVKWGLRKSLPLIELRATFTLDLWELDNLERGKPNVDLSSLEETVRKVAEFEDEVIFRGCEKSGVKGLLSFEERKIECGSTPKDLLEAIVRALSIFSKDGIEGPYTLVINTDRWINFLKEEAGHYPLEKRVEECLRGGKIITTPRIEDALVVSERGGDFKLILGQDLSIGYEDREKDAVRLFITETFTFQVVNPEALILLKF
notes: T. maritima encapsulin capsid protein; gene amplified from pET14-GFP30-Encap (Addgene #86406); model built from PDB 3DKT; Assembles into an icosahedral shell with 12 fivefold pores; its symmetry expansion ('the other expanded 59 sets') implies 60; also called encapsulin shell; source: insect cells (baculovirus, pFastBac1), coexpressed with cargo, purified (Ni-NTA, Superdex 200); not shown: His …
Regarding B1, the binding result was “binds”.
